{"source": "patent US20110158939A1", "about": "(published 2011)", "binders": {"B1": {"name": "IL-4RA (mutant human IL-4 protein with the R121D/Y124D pair of substitutions) (ligand, UniProt P05112 25-153, looked up)", "chain": "HKCDITLQEIIKTLNSLTEQKTLCTELTVTDIFAASKNTTEKETFCRAATVLRQFYSHHEKDTRCLGATAQQFHRHKQLIRFLKRLDRNLWGLAGLNSCPVKEANQSTLENFLERLKTIMDEKDSKCSS", "notes": "mature; Substitution positions count on the mature 129-residue protein, not on the precursor; also called mhIL-4; IL-4 mutein"}}, "key": {"[1]": {"biological_target": "T1, wild type human Interleukin-4 (human, UniProt P05112 25-153)", "T1 sequence (looked up)": "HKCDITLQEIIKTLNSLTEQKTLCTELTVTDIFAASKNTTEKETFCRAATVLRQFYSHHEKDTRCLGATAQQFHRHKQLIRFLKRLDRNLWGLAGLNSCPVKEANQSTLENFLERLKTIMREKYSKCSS", "assay": "cell-based or functional assay"}, "[2]": {"biological_target": "T2, IL-4 receptor α chain (UniProt P24394 26-232, limits assumed)", "T2 construct": "also called IL-4Rα; IL-4-receptor alpha chain", "T2 sequence (looked up)": "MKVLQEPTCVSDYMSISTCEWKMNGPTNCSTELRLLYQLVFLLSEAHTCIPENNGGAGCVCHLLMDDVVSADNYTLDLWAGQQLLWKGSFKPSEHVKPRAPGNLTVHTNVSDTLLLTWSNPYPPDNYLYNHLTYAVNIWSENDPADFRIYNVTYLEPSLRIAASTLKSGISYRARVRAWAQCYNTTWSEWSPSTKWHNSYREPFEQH", "assay": "Biacore, IL-4 receptor α chain immobilized"}, "[3]": {"biological_target": "T2, IL-4 receptor α chain", "assay": "Biacore, IL-4 receptor α chain immobilized (n = 7)"}, "[4]": {"biological_target": "T2, IL-4 receptor α chain", "assay": "Biacore, pre- and post-nebulized samples (Aeroneb Pro), no difference between them"}}}
{"binder": "B1", "values": [{"measurement": "TF-1/IL-4 proliferation assay, EC50 of inhibition of IL-4-induced cell proliferation", "setting": "[1]", "value": "200 to 300", "unit": "pM"}, {"measurement": "TF-1/IL-4 proliferation assay, IC50, post nebulization (Pari LC Plus)", "setting": "[1]", "value": 483, "unit": "pM"}, {"measurement": "TF-1/IL-4 proliferation assay, IC50, pre nebulization (Pari LC Plus)", "setting": "[1]", "value": 459, "unit": "pM"}, {"measurement": "koff", "setting": "[2]", "value": 0.0017, "unit": "s⁻¹"}, {"measurement": "kon", "setting": "[2]", "value": "1.6e+07", "unit": "M⁻¹ s⁻¹"}, {"measurement": "Kd", "setting": "[3]", "value": 140, "unit": "pM"}, {"measurement": "Kd", "setting": "[4]", "value": "~100", "unit": "pM"}]}
